According to patent publication US20060058229A1, “Peptides and methods for cell death regulation” (priority 2002, published 2006):

Assays:
XIAP [1] = target: T1, XIAP (Homo sapiens, UniProt P98170); assay: In vitro XIAP self-conjugation assay; assay type: biochemical
T1 construct: Full length xiap was amplified by PCR and subcloned into the EcoRI, ApaI site of this pcDNA3; made in house; host or cells: in vitro transcription-translation system (Promega); UBCH5C from E. coli BL21 (pLysS)
Experimental: IAP-E2 Binding Assay for Measuring Self-Conjugation
^35S-methionine labeled DIAP1 or XIAP was generated in an in vitro transcription-translation system (Promega) from diap1-pET14b and xiap-pcDNA3.1 respectively. For purification of His-UBCD1 and His-UBCH5C, ubcD1-pET14b and ubcH5C-pT7-7 were expressed in BL21 (pLysS) and purfied on a Ni-column according to the manufacturer's protocol (Novagen). ^35S-DIAP1 or ^35S-XIAP was incubated with purified UBCD1 or UBCH5C respectively in the absence or presence of the W-7, H2-9 or H2-9W7 peptides. Following incubation of 15 min in room temperature in 20 mM Tris pH7.6, 2 mM DTr, Ni-NTA Agarose beads (Qiagen) were added for additional 30 minutes. The beads were subsequently washed four times with the Tis/DTT buffer, eluted with Laemli buffer and subjected to 10% SDS-PAGE. ^35S-DIAP1 or ^35S-XIAP was visualized by Phosphorimaging.
^35S-methionine labeled mutant and wild type DIAP1, or wild type XIAP were generated in an in vitro transcription-translation system (Promega) from diap1-pET14b, diap1^21-4S pET14b and xiap pcDNA3.1 plasmids. For purification of His-UBCD1 and His-UBCH5C, ubcD1-pET14b and ubcH5C-pT7-7 were expressed in BL21 (pLysS) and purified on a Ni-column according to the manufacturer's protocol (Novagen). […]

[2] = target: His-DIAP1 21-4S mutant (RING domain mutant, Cys 406 to Tyr), 35S-methionine labeled, in vitro translated from diap1 21-4S pET14b (UniProt Q24306)
[3] = target: DIAP1 (Drosophila IAP1), wild type, 35S-methionine labeled, in vitro translated from diap1-pET14b (UniProt Q24306)
DIAP1 [4] = assay: Ectopic expression (Gal4/UAS) in Drosophila imaginal discs and embryos, anti-DIAP1 labeling; assay type: in vivo
Excerpt: Mitotic recombination was induced in the developing eye imaginal discs using the Flp-FRT method36 and ey-flipase. Gal4/UAS system was used for ectopic expression.
GST-DIAP16 was expressed in BL21 (pLysS) bacteria, and was gel purified before immunizing rabbits (Cocalico Biologicals). diap1(WT)-pET14b was used to express His-DIAP1 in BL21(pLysS) and was purified according to the manufacturer's protocol (Novagen) and immobilized on nitrocellulose paper to affinity purify anti-DIAP1 antisera Rabbit anti-β-galactosidase antibody (Cappel, ICN), mouse-anti-β-gatosdase antibody (Sigma), monoclonal anti-Engrailed antibody (Developmental Studies Hybridoma Bank), Rabbit CM1 antibody24 and mouse anti-HA antibody (Babco) were used to stain embryos and imaginal discs under standard conditions. For western blots, 6-18 h hour embryos were homogenized in the lysis buffer (20 mM Tris pH 7.5, 100 mM NaCl, 1% NP-40, 2 mM DTT) and the cell debns was spun down. The supernatant was run on 15% SDS-PAGE gels, transferred to nitrocellulose sheets and probed with Rabbit anti-DIAP1 antibody. Western blot was detected with ECL (Amersham).
IAP degradation in thymocytes is a regulated process, wherein glucocorticoids can trigger IAP degradation by unknown mechanisms. To determine whether DIAP1 degradation is also regulated in Drosophila, we co-expressed the cell death promoting protein RPR and the baculovirus p35 caspase inhibitor^21 in the wing imaginal disc posterior compartment using the engrailed (en)-Gal4 driner^22. Expression of p35 prevented RPR-expressing cells from dying, and the resulting cell population not undergoing apoptosis enabled us to observe cellular changes downstream of RPR. Whereas animals expressing RPR alone died as embryos, those compressing RPR and p35 survived to adulthood with wings indistinguishable from wild type (FIG. 2a). […] The wing imaginal discs were also labeled with CM1 antibody, which detects activated caspase-3 in humans and cross-reacts with activated caspases in Drosophila^23,24. In the control anterior compartment, sporadic apoptotic cells were intensely labeled with CM1.
Thus, the effect of the RING finger mutations on RPR-dependent DIAP1 degradation in embryos was determined. The protein distribution of DIAP1 was analyzed in embryos that express RPR under the prd-Gal4 driver (FIG. 3a, c). In wild type embryos, DIAP1 is homogenously distributed (FIG. 3b).

XIAP [5] = target: T1, XIAP; assay: In vitro ubiquitination reaction of 35S-XIAP; assay type: biochemical
Experimental: (§1) In Vitro Ubiquitination Reaction
^35S-methionine labeled mutant and wild type DIAP1, or wild type XIAP were generated in an in vitro transcription-translation system (Promega) from diap1-pET14b, diap1^21-4S pET14b and xiap pcDNA3.1 plasmids. For purification of His-UBCD1 and His-UBCH5C, ubcD1-pET14b and ubcH5C-pT7-7 were expressed in BL21 (pLysS) and purified on a Ni-column according to the manufacturer's protocol (Novagen). In vitro ubiquitination assays were carried out in a total volume of 12.5 μl and contained: ^35S-methionine labeled wild type or mutant DIAP1 or Wild type XIAP (approximately 10,000 cpm), and 250 ng E1 (made in baculovirus; vector is the kind gift of Dr. Kaznbiro Iwai, University of Osaka, Osaka Japan). Unless otherwise stated, 1.2 μg His-UBCD1 or His-UBCH5C was used in each reaction Reaction mire contained also 40 mM Tris-HCl, pH 7.6, 5 mM MgCl2, 1 mM DTT, 5 μg ubiquitin, 100 ng Ubiquitin-aldehyde, 2 mM ATPγS [Adenosine 5′-O-(3-thiotriphosphate)]. Reactions were incubated for 50 min at 37° C., and resolved, following addition of a sample buffer on SDS-PAGE (10%). Gels were dried and proteins visualized via Phosphorimaging (Fuji, Japan).

DIAP1 [6] = assay: In vitro ubiquitination reaction / self-conjugation of 35S-DIAP1; assay type: biochemical, Drosophila; conditions: 35S-DIAP1 with E1 and ubiquitin
Experimental: as §1
^35S-methionine labeled mutant and wild type DIAP1, or wild type XIAP were generated in an in vitro transcription-translation system (Promega) from diap1-pET14b, diap1^21-4S pET14b and xiap pcDNA3.1 plasmids. For purification of His-UBCD1 and His-UBCH5C, ubcD1-pET14b and ubcH5C-pT7-7 were expressed in BL21 (pLysS) and purified on a Ni-column according to the manufacturer's protocol (Novagen). In vitro ubiquitination assays were carried out in a total volume of 12.5 μl and contained: ^35S-methionine labeled wild type or mutant DIAP1 or Wild type XIAP (approximately 10,000 cpm), and 250 ng E1 (made in baculovirus; vector is the kind gift of Dr. Kaznbiro Iwai, University of Osaka, Osaka Japan). […]
In order to determine whether both amino acid consensus sequences described above are essential for IAP degradation; peptides were generated, with amino acid sequences as described in Tables 1, 3 and 5 above, containing one of each amino acid consensus sequence, or both and their ability to stimulate in vitro IAP ubiquitination was assessed (FIG. 13). ^35S-methionine labeled wild type DIAP1 was incubated with 250 ng E1 and ubiquitin, with or without the addition of the RPR wild type protein, or peptides containing the RHG amino acid consensus sequence of the RPR HID or GRIM proteins, and the reaction products were resolved by SDS-PAGE.

Diap1 in Cos-7 cells = target: T2, Diap1 in Cos-7 cells (Drosophila melanogaster, UniProt Q24306); assay: Cellular stability of DIAP1 (cycloheximide chase, Western blot); assay type: cell-based; conditions: Cos-7 cells co-transfected with Diap1-Flag and RPR-HA, cycloheximide 30 minute chase
T2 construct: expressed in transfected cells; host or cells: Cos-7
T2 sequence (Q24306 1-438): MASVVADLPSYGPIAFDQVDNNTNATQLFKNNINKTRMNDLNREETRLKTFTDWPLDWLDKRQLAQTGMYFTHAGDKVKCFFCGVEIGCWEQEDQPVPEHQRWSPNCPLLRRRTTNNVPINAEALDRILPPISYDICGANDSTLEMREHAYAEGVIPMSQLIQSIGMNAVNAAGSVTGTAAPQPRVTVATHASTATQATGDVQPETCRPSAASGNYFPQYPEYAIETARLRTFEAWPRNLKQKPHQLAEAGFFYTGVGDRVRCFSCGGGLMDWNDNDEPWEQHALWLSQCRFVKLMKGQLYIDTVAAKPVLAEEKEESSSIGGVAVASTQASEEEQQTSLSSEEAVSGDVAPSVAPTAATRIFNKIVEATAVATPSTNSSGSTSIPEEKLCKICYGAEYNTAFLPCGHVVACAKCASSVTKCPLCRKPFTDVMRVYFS
Experimental: Cellular Stability of DIAP1
Cos-7 cells were transfected with 1 μg of wild-type (wt) Diap1-Flag-pcDNA3 along with 1 μg RPR-HA-pcDNA3 or 1 μg pcDNA3 vector (to maintain an equal amount of DNA in all transfections). Transfections were carried out by using FuGene™. 30 h aer transfection, 100 μg cycloheximide (Sigma) was added to each 60 mm dish for 0, 30, 60 min. Cells were harvested and lysed. Equal amount of protein were resolved via SDS-PAGE (10%) and blotted onto riocellulose paper. Diap1 was monitored by Western blot analysis using anti-Diap1 antibody and ECL.
In order to determine the effect of the IAP inhibitor (IAPi), Reaper's expression on IAP protein stability, a pulse-chase experiment was conducted using Cos-7 cells co-transfected with Diap1-Flag-pcDNA3 and RPR-HA-pcDNA3 or pcDNA3 vector alone treated with cycloheximide for 0, 30 or 60 minutes, followed by cell lysis, and immunoblot analysis.

T1 sequence (P98170 whole entry): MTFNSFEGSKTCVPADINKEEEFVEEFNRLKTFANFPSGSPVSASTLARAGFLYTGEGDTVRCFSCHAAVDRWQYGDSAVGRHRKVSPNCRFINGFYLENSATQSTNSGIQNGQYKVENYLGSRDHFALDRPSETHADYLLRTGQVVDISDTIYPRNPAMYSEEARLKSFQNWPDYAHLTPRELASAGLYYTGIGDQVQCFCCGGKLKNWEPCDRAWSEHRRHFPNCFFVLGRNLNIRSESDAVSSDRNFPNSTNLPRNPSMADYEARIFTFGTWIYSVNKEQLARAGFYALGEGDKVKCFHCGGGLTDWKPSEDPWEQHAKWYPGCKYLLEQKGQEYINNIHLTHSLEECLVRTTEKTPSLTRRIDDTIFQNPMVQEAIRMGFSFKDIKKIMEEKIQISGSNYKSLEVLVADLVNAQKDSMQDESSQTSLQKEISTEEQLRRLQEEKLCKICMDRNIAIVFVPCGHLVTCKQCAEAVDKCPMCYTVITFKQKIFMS

AVAPYIPDQATLLR QWRFLATVVL (AVAFYIPDQATLLRQWRFLATVVL; Drosophila melanogaster) [Peptide R15W]
XIAP self-conjugation in vitro (XIAP [1]): greatest effect

His-UBCD1 (Drosophila ubiquitin conjugating enzyme UbcD1, purified from E. coli)
in vitro ubiquitination of 35S-DIAP1 (E1, His-UBCD1, ubiquitin; SDS-PAGE, Phosphorimaging) [2]: the His-DIAP1^21-4S mutant (RING domain mutant) did not (lane 7), in the presence of ubcD1
in vitro ubiquitination of 35S-DIAP1 (E1, His-UBCD1, ubiquitin; SDS-PAGE, Phosphorimaging) [3]: Wild-type DIAP1 (lane 4) showed marked ubiquitination

AVPFYLPE QWRFLATVVL (AVPFYLPEQWRFLATVVL; Drosophila melanogaster) [Peptide H9-W]
XIAP self-conjugation in vitro (XIAP [1]): greatest effect

B1: Reaper: Drosophila IAP inhibitor (IAPi) protein REAPER, wild type; used as protein or expressed from a transgene/plasmid (protein)
chain: MAVAFYIPDQATLLREAEQKEQQILRLRESQWRFLATVVLETLRQYTSCHPKTGRKSGKYRKPSQ
DIAP1 downregulation in embryos (DIAP1 [4]; RING domain mutant background, diap1 33-1S and diap1 22-8S alleles): no longer able to downregalate DIAP1
DIAP1 protein levels in embryos (DIAP1 [4]; expression under prd-Gal4 driver, wild type diap1): DIAP1 protein levels decrease
diap1-lacZ expression (DIAP1 [4]; wing imaginal disc posterior compartment, co-expressed with p35 under en-Gal4): increased
anti-DIAP1 labeling (DIAP1 [4]; wing imaginal disc posterior compartment, co-expressed with p35 under en-Gal4, compared to anterior compartment): reduced anti-DIAP1 labeling
auto-ubiquitination of human XIAP (XIAP [5]): strongly stimulated
IAP (DIAP1) self-conjugation / auto-ubiquitination in vitro (DIAP1 [6]): resulted in auto-ubiquitination
IAP (Diap1) protein level / half-life (Diap1 in Cos-7 cells): dramatic reduction in detectable IAP protein
